Laboratory results taken from doi:10.1101/2020.06.23.166439.

Molecular target: tail tube protein (TTP) gp17.1 of bacteriophage SPP1 (bacteriophage SPP1)
Experiment: cryo-EM structure + other: solid-state NMR

## tail tube protein (TTP) gp17.1 of bacteriophage SPP1 (natural protein)
  stoichiometry N: 6
